Legend:
Assay in all cases: cell-based or functional assay
[1] = molecular target: Env of HIV-1 strain SC422661.8 (HIV-1)
[2] = molecular target: Env of HIV-1 strain CAAN5342.A2 (HIV-1)
[3] = molecular target: Env of HIV-1 strain Du156.12 (HIV-1)
[4] = molecular target: HIV-1 Env of strain Ce1176_A3 (HIV-1)
[5] = molecular target: HIV-1 Env of strain 62357_14_D3_4589 (HIV-1)
[6] = molecular target: HIV-1 Env of strain CNE52 (HIV-1)
[7] = molecular target: HIV-1 Env of strain 6240_08_TA5_4622 (HIV-1)
[8] = molecular target: HIV-1 Env of strain CAP45.2.00.G3 (HIV-1)
[9] = molecular target: Env of HIV-1 strain T255-34 (HIV-1)
[10] = molecular target: HIV-1 Env of strain 1394C9G1(Rev-) (HIV-1)
[11] = molecular target: HIV-1 Env of strain 191084 B7-19 (HIV-1)
[12] = molecular target: Env of HIV-1 strain CNE21 (HIV-1)
[13] = molecular target: HIV-1 Env of strain BJOX025000.01.1 (HIV-1)
[14] = molecular target: HIV-1 Env of strain T257-31 (HIV-1)
[15] = molecular target: Env of HIV-1 strain BJOX010000.06.2 (HIV-1)
[16] = molecular target: HIV-1 Env of strain 3301.v1.c24 (HIV-1)
[17] = molecular target: HIV-1 Env of strain 3415.v1.c1 (HIV-1)
[18] = molecular target: HIV-1 Env of strain SC422661.8 (HIV-1)
[19] = molecular target: HIV-1 Env of strain HIV-0013095-2.11 (HIV-1)
[20] = molecular target: Env of HIV-1 strain Ce1176_A3 (HIV-1)
[21] = molecular target: HIV-1 Env of strain MS208.A1 (HIV-1)
[22] = molecular target: Env of HIV-1 strain 6535.3 (HIV-1)
[23] = molecular target: Env of HIV-1 strain 0815.v3.c3 (HIV-1)
[24] = molecular target: Env of HIV-1 strain CNE58 (HIV-1)
[25] = molecular target: HIV-1 Env of strain BJOX015000.11.5 (HIV-1)
[26] = molecular target: HIV-1 Env of strain P1981_C5_3 (HIV-1)
[27] = molecular target: HIV-1 Env of strain QH0692.42 (HIV-1)
[28] = molecular target: Env of HIV-1 strain R1166.c01 (HIV-1)
[29] = molecular target: HIV-1 Env of strain CNE58 (HIV-1)
[30] = molecular target: Env of HIV-1 strain WEAU_d15_410_787 (HIV-1)
[31] = molecular target: Env of HIV-1 strain CAP210.2.00.E8 (HIV-1)
[32] = molecular target: HIV-1 Env of strain ZM197M.PB7 (HIV-1)
[33] = molecular target: Env of HIV-1 strain 6244_13_B5_4576 (HIV-1)
[34] = molecular target: Env of HIV-1 strain R2184.c04 (HIV-1)
[35] = molecular target: HIV-1 Env of strain X1193_c1 (HIV-1)
[36] = molecular target: Env of HIV-1 strain T250-4 (HIV-1)
[37] = molecular target: HIV-1 Env of strain BF1266.431a (HIV-1)
[38] = molecular target: HIV-1 Env of strain TRJO4551.58 (HIV-1)
[39] = molecular target: Env of HIV-1 strain 263-8 (HIV-1)
[40] = molecular target: Env of HIV-1 strain X2131_C1_B5 (HIV-1)
[41] = molecular target: Env of HIV-1 strain AC10.0.29 (HIV-1)
[42] = molecular target: HIV-1 Env of strain R1166.c01 (HIV-1)
[43] = molecular target: Env of HIV-1 strain HIV-001428-2.42 (HIV-1)
[44] = molecular target: Env of HIV-1 strain 3817.v2.c59 (HIV-1)
[45] = molecular target: Env of HIV-1 strain 191821_E6_1 (HIV-1)
[46] = molecular target: Env of HIV-1 strain ZM109F.PB4 (HIV-1)
[47] = molecular target: Env of HIV-1 strain T251-18 (HIV-1)
[48] = molecular target: HIV-1 Env of strain C2101.c01 (HIV-1)
[49] = molecular target: Env of HIV-1 strain Q23.17 (HIV-1)
[50] = molecular target: HIV-1 Env of strain Ce0393_C3 (HIV-1)
[51] = molecular target: HIV-1 Env of strain AC10.0.29 (HIV-1)

Sequence of NIH45-46 (antibody) (VH): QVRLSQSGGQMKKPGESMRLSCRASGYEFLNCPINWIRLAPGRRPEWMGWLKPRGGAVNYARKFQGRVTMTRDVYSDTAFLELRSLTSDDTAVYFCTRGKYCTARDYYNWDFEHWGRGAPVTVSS
Sequence of NIH45-46 (antibody) (V domain): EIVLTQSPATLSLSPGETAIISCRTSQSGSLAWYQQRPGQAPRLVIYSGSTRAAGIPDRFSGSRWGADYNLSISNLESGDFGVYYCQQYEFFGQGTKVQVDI

For NIH45-46 (antibody), the IC80 [1] was 0.13 µg/mL, the IC80 [2] was 0.4 µg/mL and the IC80 [3] was 0.054 µg/mL. It also gave an IC50, pseudovirus neutralization [4] of 0.93 µg/mL, an IC50, pseudovirus neutralization [5] of 0.06 µg/mL and an IC50, pseudovirus neutralization [6] of 0.03 µg/mL. For the same substance, the IC50, pseudovirus neutralization [7] was 0.44 µg/mL, the IC50, pseudovirus neutralization [8] was > 50 µg/mL and the IC80 [9] was 3.44 µg/mL. For the same substance, the IC50, pseudovirus neutralization [10] was 0.09 µg/mL, the IC50, pseudovirus neutralization [11] was 0.02 µg/mL and the IC80 [12] was 38.1 µg/mL. For the same substance, the IC50, pseudovirus neutralization [13] was 0.18 µg/mL, the IC50, pseudovirus neutralization [14] was 0.49 µg/mL and the IC80 [15] was 6.37 µg/mL. It also gave an IC50, pseudovirus neutralization [16] of 0.009 µg/mL, an IC50, pseudovirus neutralization [17] of 0.022 µg/mL and an IC50, pseudovirus neutralization [18] of 0.06 µg/mL. For the same substance, the IC50, pseudovirus neutralization [19] was 0.01 µg/mL, the IC80 [20] was 3.17 µg/mL and the IC50, pseudovirus neutralization [21] was 0.09 µg/mL. For the same substance, the IC80 [22] was 0.54 µg/mL, the IC80 [23] was 0.052 µg/mL and the IC80 [24] was 2.08 µg/mL. The IC50, pseudovirus neutralization [25] was 0.06 µg/mL, the IC50, pseudovirus neutralization [26] was 0.08 µg/mL and the IC50, pseudovirus neutralization [27] was 0.72 µg/mL. It also gave an IC80 [28] of 1.21 µg/mL, an IC50, pseudovirus neutralization [29] of 0.43 µg/mL and an IC80 [30] of 0.015 µg/mL. For the same substance, the IC80 [31] was > 50 µg/mL, the IC50, pseudovirus neutralization [32] was 0.15 µg/mL and the IC80 [33] was 0.26 µg/mL. For the same substance, the IC80 [34] was 0.127 µg/mL, the IC50, pseudovirus neutralization [35] was 0.021 µg/mL and the IC80 [36] was > 50 µg/mL. The IC50, pseudovirus neutralization [37] was 0.01 µg/mL, the IC50, pseudovirus neutralization [38] was 0.04 µg/mL and the IC80 [39] was 0.1 µg/mL. It also gave an IC80 [40] of 0.88 µg/mL, an IC80 [41] of 1.93 µg/mL and an IC50, pseudovirus neutralization [42] of 0.31 µg/mL. The IC80 [43] was 0.01 µg/mL, the IC80 [44] was > 50 µg/mL and the IC80 [45] was 0.46 µg/mL. For the same substance, the IC80 [46] was 0.437 µg/mL, the IC80 [47] was 3.68 µg/mL and the IC50, pseudovirus neutralization [48] was 4.24 µg/mL. It also gave an IC80 [49] of 0.5 µg/mL, an IC50, pseudovirus neutralization [50] of 0.334 µg/mL and an IC50, pseudovirus neutralization [51] of 0.56 µg/mL.
